The source of these data is patent US20110318353A1 (Janssen / Centocor, published 2011).

Where two headings read alike, the source gives them in different places.

In general, IC50 refers to the concentration at which inhibition is half-maximal. One may read the Kd as a measure of binding affinity in units of concentration.

The target of test [1] is T1, human IL-25 (human, UniProt Q9H293 33-177).
T1 sequence: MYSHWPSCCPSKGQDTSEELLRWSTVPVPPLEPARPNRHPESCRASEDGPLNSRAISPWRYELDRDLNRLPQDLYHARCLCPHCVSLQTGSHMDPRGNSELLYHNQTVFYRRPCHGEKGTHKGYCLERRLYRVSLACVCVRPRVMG
Description: Receptor inhibition (column sub-head 'Panel A/ B'): bead-based ECLIA, inhibition of IL-25 binding to the IL-25 receptor. An excerpt: (§1) The Fabs were converted to mAbs as follows. A combinatorial library of 5 different light chains and 5 different heavy chains (including the huDDG91 light and heavy chains) was designed. The light and heavy chains used in the library differed from one another in the light chain CDR1 and CDR3 amino acid sequences and the heavy chain CDR 3 sequence. Using these light and heavy chains, a total of 25 mAbs (IgG1) were constructed, expressed in HEK293 cells at small scale and purified. Each of the mAbs was tested for IL-25 binding affinity, cellular inhibition, and receptor inhibition as follows: [0149] IL-25 binding affinity was determined using standard IL-25 ELISA and Biacore binding assays. […] Cellular inhibition was assessed using a standard TK-10 human renal carcinoma cell-based assay (IL-25 responsive; IL-25 and IL-8 readout; capable of discerning difference between soluble IL-25R and parental mAb) and a CD4+ T cell-based assay. […] Receptor inhibition was assessed using a modified bead-based electrochemiluminescence immunoassay (ECLIA). Candidates causing a greater than 3-fold decrease in IC₅₀ of IL-25 binding to receptor relative to parental huDDG91 antibody at a 10 nM mAb concentration were selected.

In test [2] the target is T1, human IL-25.
In test [3] the target is T1, human IL-25. Description: Biacore, 7200 sec dissociation.
From the text: as §1
Background: In SPR one partner is held on a chip, and binding of the other changes the refractive index at the surface.

Test [4] deals with T1, human IL-25. Description: Receptor inhibition (column sub-head 'Panel A/ B'): bead-based ECLIA, inhibition of IL-25 binding to the IL-25 receptor; lower end of the range.
From the text: as §1

The target of test [5] is T1, human IL-25. Description: Receptor inhibition (column sub-head 'Panel A/ B'): bead-based ECLIA, inhibition of IL-25 binding to the IL-25 receptor; upper end of the range.
From the text: as §1

Test [6] addresses T1, human IL-25. Description: Biacore, 7200 sec dissociation; second R71V G1 row, printed in italics = number from a different data set.
Test [7] has as its target T1, human IL-25. Description: Biacore, 7200 sec dissociation; first R71V G1 row.
From the text: as §1

The target of test [8] is T1, human IL-25. Description: cell-based or functional assay.
The target in test [9] is T1, human IL-25. Description: Biacore, 7200 sec dissociation; printed in italics = number from a different data set.
In another test the target is T2, cynomolgus monkey IL-25 (cynomolgus monkey, UniProt G7P9V9 33-176).
T2 construct: also called cynoIL-25; cyno IL-25
T2 sequence: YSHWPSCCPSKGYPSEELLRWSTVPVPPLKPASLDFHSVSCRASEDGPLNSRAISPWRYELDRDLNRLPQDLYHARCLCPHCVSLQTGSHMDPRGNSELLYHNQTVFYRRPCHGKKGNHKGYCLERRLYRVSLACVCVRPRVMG
Description: species cross-reactivity criterion; method not stated.

Test [10] addresses T1, human IL-25. Description: receptor inhibition: IL-25 binding to receptor, bead-based ECLIA.

On to IL-17BR (receptor), for which the IC50 with human IL-25 [1] worked out at 0.063 nM. Besides, the Cellular inhibition, fold change in the test with human IL-25 [2] came out at 1 fold change. Moreover, in the test with human IL-25 [3], the Kd came out at 0.017 nM.

B1: huDDG91 antibody (antibody, V domains shown)
VH: EVQLVESGAEVKKPGASVKVSCKASGYSFSGYTMNWVRQAPGQRLEWMGLINPYNGGTSYNQNFKGRVTLTVDTSASTAYLELNSLRSEDTGVYYCAREDYDGYLYFAMDYWGQGTLVTVS
VL: DIQMTQSPSSLSASVGDRVTITCSASQGISNYLNWYQQKPGKVPKLLIYYTSSLHSGVPSRFSGSGSGTDFTLTISSLQPEDVATYYCQQYSKLPYTFGQGTKLEIK
notes: Humanized (CDR-grafted) version of murine 2C3; also called RH2.5_R71V; M9
In the case of B1, the results for the IC50 with human IL-25 [4] and with human IL-25 [5] were ≥ 0.0452 nM and ≤ 0.0643 nM, respectively. In addition, the equilibrium dissociation constant (Kd) in the test with human IL-25 [6] was determined as 0.136 nM; with human IL-25 [7] it was 0.194 nM.

B2: I25M28 (antibody, V domains shown)
VH: EVQLVESGAEVKKPGASVKVSCKASGYSFSGYTMNWVRQAPGQRLEWMGLINPYNGGTSYNQNFKGRVTLTVDTSASTAYLELNSLRSEDTGVYYCAREDFDSWTYFAMDYWGQGTLVTVS
VL: DIQMTQSPSSLSASVGDRVTITCSASQGISNYLNWYQQKPGKVPKLLIYYTSSLHSGVPSRFSGSGSGTDFTLTISSLQPEDVATYYCQQYLAFPYTFGQGTKLEIK
notes: One of the 9 candidate IgG1 mAbs of the combinatorial library based on huDDG91
In turn, B2 registered an IC50 with human IL-25 [1] of 0.014 nM. The same molecule yielded a Kd with human IL-25 [3] of 0.019 nM. Further, the “Cellular inhibition, fold change” value in the test with human IL-25 [8] came to 16 fold change.

B3: I25M31 (antibody, V domains shown)
VH: EVQLVESGAEVKKPGASVKVSCKASGYSFSGYTMNWVRQAPGQRLEWMGLINPYNGGTSYNQNFKGRVTLTVDTSASTAYLELNSLRSEDTGVYYCAREDFDSWTYFAMDYWGQGTLVTVS
VL: DIQMTQSPSSLSASVGDRVTITCSASQGISNYLNWYQQKPGKVPKLLIYYTSSLHSGVPSRFSGSGSGTDFTLTISSLQPEDVATYYCQQYSKLPYTFGQGTKLEIK
notes: as for B2
Molecule B3 displayed a half-inhibitory concentration (IC50) with human IL-25 [1] of 0.018 nM. This molecule returned a Kd in the test with human IL-25 [3] of 0.04 nM. The “Cellular inhibition, fold change” value with human IL-25 [8] came out at 12 fold change.

B4: I25M10 (antibody, V domains shown)
VH: EVQLVESGAEVKKPGASVKVSCKASGYSFSGYTMNWVRQAPGQRLEWMGLINPYNGGTSYNQNFKGRVTLTVDTSASTAYLELNSLRSEDTGVYYCAREDFDSWTFFAMDYWGQGTLVTVS
VL: DIQMTQSPSSLSASVGDRVTITCSASQGISNYLNWYQQKPGKVPKLLIYYTSSLHSGVPSRFSGSGSGTDFTLTISSLQPEDVATYYCQQYLAFPYTFGQGTKLEIK
notes: as for B2
B4: the IC50 in the test with human IL-25 [1] is 0.014 nM. In the test with human IL-25 [3], this molecule came in with a Kd of 0.036 nM. The “Cellular inhibition, fold change” value with human IL-25 [8] was 5 fold change.

B5: I25M32 (antibody, V domains shown)
VH: EVQLVESGAEVKKPGASVKVSCKASGYSFSGYTMNWVRQAPGQRLEWMGLINPYNGGTSYNQNFKGRVTLTVDTSASTAYLELNSLRSEDTGVYYCAREDYDSWTFFAMDYWGQGTLVTVS
VL: DIQMTQSPSSLSASVGDRVTITCSASQGINEYLNWYQQKPGKVPKLLIYYTSSLHSGVPSRFSGSGSGTDFTLTISSLQPEDVATYYCQQYINFPYTFGQGTKLEIK
notes: as for B2
In turn, B5 gave a concentration for half-maximal inhibition (IC50) with human IL-25 [1] of 0.011 nM. In the test with human IL-25 [3], this molecule gave a Kd of 0.087 nM. In the test with human IL-25 [8], the “Cellular inhibition, fold change” value was found to be 4 fold change.

B6: I25M11 (antibody, V domains shown)
VH: EVQLVESGAEVKKPGASVKVSCKASGYSFSGYTMNWVRQAPGQRLEWMGLINPYNGGTSYNQNFKGRVTLTVDTSASTAYLELNSLRSEDTGVYYCAREDFDSWTFFAMDYWGQGTLVTVS
VL: DIQMTQSPSSLSASVGDRVTITCSASQGIASFLNWYQQKPGKVPKLLIYYTSSLHSGVPSRFSGSGSGTDFTLTISSLQPEDVATYYCQQYSSFPYTFGQGTKLEIK
notes: as for B2
In the test with human IL-25 [1], B6 returned a 50% inhibitory concentration (IC50) of 0.014 nM. Besides, binding with human IL-25 [3] was characterised by a dissociation constant (Kd) of 0.057 nM. In addition, the “Cellular inhibition, fold change” value with human IL-25 [8] was 5 fold change.

B7: I25M30 (antibody, V domains shown)
VH: EVQLVESGAEVKKPGASVKVSCKASGYSFSGYTMNWVRQAPGQRLEWMGLINPYNGGTSYNQNFKGRVTLTVDTSASTAYLELNSLRSEDTGVYYCAREDFDSWTYFAMDYWGQGTLVTVS
VL: DIQMTQSPSSLSASVGDRVTITCSASQGIHWNLNWYQQKPGKVPKLLIYYTSSLHSGVPSRFSGSGSGTDFTLTISSLQPEDVATYYCQQFNSFPYTFGQGTKLEIK
notes: as for B2
B7: the IC50 with human IL-25 [1] stood at 0.02 nM. Moreover, the affinity with human IL-25 [3], expressed as Kd, was 0.044 nM. In the test with human IL-25 [8], the “Cellular inhibition, fold change” value worked out at 3 fold change.

B8: I25M34 (antibody, V domains shown)
VH: EVQLVESGAEVKKPGASVKVSCKASGYSFSGYTMNWVRQAPGQRLEWMGLINPYNGGTSYNQNFKGRVTLTVDTSASTAYLELNSLRSEDTGVYYCAREDFDSWTYFAMDYWGQGTLVTVS
VL: DIQMTQSPSSLSASVGDRVTITCSASQGINEYLNWYQQKPGKVPKLLIYYTSSLHSGVPSRFSGSGSGTDFTLTISSLQPEDVATYYCQQYINFPYTFGQGTKLEIK
notes: as for B2
Turning to B8, the IC50 with human IL-25 [1] is 0.013 nM. The molecule also returned a Kd in the test with human IL-25 [3] of 0.064 nM. Besides, the “Cellular inhibition, fold change” value in the test with human IL-25 [8] was 7 fold change.

B9: I25M20 (antibody, V domains shown)
VH: EVQLVESGAEVKKPGASVKVSCKASGYSFSGYTMNWVRQAPGQRLEWMGLINPYNGGTSYNQNFKGRVTLTVDTSASTAYLELNSLRSEDTGVYYCAREDYDSWTFFAMDYWGQGTLVTVS
VL: DIQMTQSPSSLSASVGDRVTITCSASQGISNYLNWYQQKPGKVPKLLIYYTSSLHSGVPSRFSGSGSGTDFTLTISSLQPEDVATYYCQQYLAFPYTFGQGTKLEIK
notes: as for B2
In the test with human IL-25 [9], B9 had a Kd of 0.045 nM. Besides, in the test with human IL-25 [1], the 50% inhibitory concentration (IC50) was 0.013 nM. In the test with human IL-25 [8], the “Cellular inhibition, fold change” value was found to be 20 fold change.

B10: M6 antibody (antibody, human IgG1, kappa, V domains shown)
VH: EVQLVESGAEVKKPGASVKVSCKASGYSFSGYTMNWVRQAPGQRLEWMGLINPYNGGTSYNQNFKGRVTLTVDTSASTAYLELNSLRSEDTGVYYCAREDYDGYLYFAMDYWGQGTLVTVSS
VL: DIQMTQSPSSLSASVGDRVTITCSASQGISNYLNWYQQKPGKVPKLLIYYTSSLHSGVPSRFSGSGSGTDFTLTISSLQPEDVATYYCQQYLAFPYTFGQGTKLEIKR
notes: Humanized IgG1 mAb with kappa light chain, a variant of huDDG91 with three substitutions in light chain CDR3
In the case of B10, the “affinity relative to that for human IL-25” value with cynomolgus monkey IL-25 was ≤ 5 fold. The molecule further showed a 50% inhibitory concentration (IC50) with human IL-25 [1] of 0.012 nM. In the test with human IL-25 [3], this molecule registered a Kd of 0.053 nM. For the same molecule, the “Cellular inhibition, fold change” value with human IL-25 [8] was 4 fold change. For the same molecule, the “fold decrease in IC50 compared to huDDG91” value with human IL-25 [10] was > 3 fold.
